Laboratory results: US20230406948A1

Columns and labels:
[1] = biological target: human CD40 on cells (native CD40 on Ramos cells, human B cells, human monocyte-derived dendritic cells; cell surface CD40) (human) (UniProt P25942); assay: FACS on live Ramos cells, goat anti-human IgG (H+L) PE
[2] = biological target: human CD40 on cells (native CD40 on Ramos cells, human B cells, human monocyte-derived dendritic cells; cell surface CD40) (human) (UniProt P25942); assay: cell-based or functional assay

Chain of human CD40 on cells (native CD40 on Ramos cells, human B cells, human monocyte-derived dendritic cells; cell surface CD40) (human) (P25942 21-193): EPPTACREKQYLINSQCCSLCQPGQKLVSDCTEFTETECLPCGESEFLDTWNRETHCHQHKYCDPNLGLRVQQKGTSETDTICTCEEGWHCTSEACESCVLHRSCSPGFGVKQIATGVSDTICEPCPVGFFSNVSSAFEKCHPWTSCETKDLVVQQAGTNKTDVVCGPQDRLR

EC50 [1]: 0.0218 µg/mL
EC50 (ng/ml), CD40 agonist activity: up-regulation of CD86 on human B cells [2]: 1260 ng/mL
Substance: SGN-40 (antibody)
